Test results from article PMC9352680, “A comprehensive thermodynamic model for RNA binding by the Saccharomyces cerevisiae Pumilio protein PUF4”.

T1: PUF4 RNA-binding domain (Saccharomyces cerevisiae, UniProt P25339 537-888)
T1 sequence: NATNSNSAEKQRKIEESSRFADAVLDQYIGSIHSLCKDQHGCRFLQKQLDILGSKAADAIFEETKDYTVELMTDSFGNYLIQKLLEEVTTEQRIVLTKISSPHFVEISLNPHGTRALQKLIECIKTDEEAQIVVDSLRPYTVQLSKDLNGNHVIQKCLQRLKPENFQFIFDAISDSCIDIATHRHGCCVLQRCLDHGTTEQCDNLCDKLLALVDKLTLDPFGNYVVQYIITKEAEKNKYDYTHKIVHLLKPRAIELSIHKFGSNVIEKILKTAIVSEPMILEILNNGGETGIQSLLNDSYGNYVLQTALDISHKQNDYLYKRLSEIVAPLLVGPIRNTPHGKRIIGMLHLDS


Each binder was assayed against T1, PUF4 RNA-binding domain (assay: Mg; RNA-MaP; 20 mM Na-HEPES pH 7.4, 30 mM KOAc, 0.75 mM MgCl2, 0.1% Tween-20, 5% glycerol, 0.1 mg/mL BSA, 2 mM DTT; 25 C; 0.0125-409.6 nM protein). Conditions: tags: N-His6-TEV cleaved; C-SNAP kept, Cy3B-labelled; label: tethered on chip by stalled RNA polymerase.

Binder | Kd [nM]
UCUCUUUGUAUAUUCCUCAUCUCUU (ssRNA) [Ie_S1_P4E.1_K4.1_C4.1_H4.1_A4.1_F4.1_[+8CCTC]_T4.1] | 6.83
UCUCUUUUGUAUUAUUAUCUCUU (ssRNA) [Ie_S1_P5E.1_K5.1_C5.1_H5.1_[+1T]_A5.1_F5.1_T5.1] | 5.92
UCUCUUUGUAUAUUAUUCCUUCUCUU (ssRNA) [Ie_S1_P4E.1_K4.1_C4.1_H4.1_A4.1_F4.1_[+9TTCCT]_T4.1] | 0.347
UCUCUUUCCCGUAUUAUUAUCUCUU (ssRNA) [Ie_S1_P5E.1_K5.1_C5.1_H5.1_[+1CCC]_A5.1_F5.1_T5.1] | 1340
UCUCUUUUCUCGUAUUAUUAUCUCUU (ssRNA) [Ie_S1_P5E.1_K5.1_C5.1_H5.1_[+1TCTC]_A5.1_F5.1_T5.1] | 1230
UCUCUUUGUAUAUUAUCCUCUCUU (ssRNA) [Ie_S1_P4E.1_K4.1_C4.1_H4.1_A4.1_F4.1_[+9TCC]_T4.1] | 0.48
UCUCUUUGUAUAUUUUCCAUCUCUU (ssRNA) [Ie_S1_P4E.1_K4.1_C4.1_H4.1_A4.1_F4.1_[+8TTCC]_T4.1] | 5.8
UCUCUUUGUAUAUUAUUCUCUCUU (ssRNA) [Ie_S1_P4E.1_K4.1_C4.1_H4.1_A4.1_F4.1_[+9TTC]_T4.1] | 0.488
UCUCUUUUUCCGUAUUAUUAUCUCUU (ssRNA) [Ie_S1_P5E.1_K5.1_C5.1_H5.1_[+1TTCC]_A5.1_F5.1_T5.1] | > 2300
UCUCUUUGUAUAUUACCUCUCUCUU (ssRNA) [Ie_S1_P4E.1_K4.1_C4.1_H4.1_A4.1_F4.1_[+9CCTC]_T4.1] | 0.706
UCUCUUUCCUCGUAUUAUUAUCUCUU (ssRNA) [Ie_S1_P5E.1_K5.1_C5.1_H5.1_[+1CCTC]_A5.1_F5.1_T5.1] | 1350
UCUCUUUGUAUAUUCCCUAUCUCUU (ssRNA) [Ie_S1_P4E.1_K4.1_C4.1_H4.1_A4.1_F4.1_[+8CCCT]_T4.1] | 6.32
UCUCUUUUCGUAUUAUUAUCUCUU (ssRNA) [Ie_S1_P5E.1_K5.1_C5.1_H5.1_[+1TC]_A5.1_F5.1_T5.1] | 1240
UCUCUUUGUAUAUUAUUUUCUCUU (ssRNA) [Ie_S1_P4E.1_K4.1_C4.1_H4.1_A4.1_F4.1_[+9TTT]_T4.1] | 0.453
UCUCUUUGUAUAUUACCUCUUCUCUU (ssRNA) [Ie_S1_P4E.1_K4.1_C4.1_H4.1_A4.1_F4.1_[+9CCTCT]_T4.1] | 1.58
UCUCUUUCUUGUAUUAUUAUCUCUU (ssRNA) [Ie_S1_P5E.1_K5.1_C5.1_H5.1_[+1CTT]_A5.1_F5.1_T5.1] | 4.33
UCUCUUUGUAUAUUAUCUCUUCUCUU (ssRNA) [Ie_S1_P4E.1_K4.1_C4.1_H4.1_A4.1_F4.1_[+9TCTCT]_T4.1] | 0.824
UCUCUUUGUAUAUUUCUCUAUCUCUU (ssRNA) [Ie_S1_P4E.1_K4.1_C4.1_H4.1_A4.1_F4.1_[+8TCTCT]_T4.1] | 6.66
UCUCUUUGUAUAUUUUCAUCUCUU (ssRNA) [Ie_S1_P4E.1_K4.1_C4.1_H4.1_A4.1_F4.1_[+8TTC]_T4.1] | 6.76

Binder | Kd [nM]
UCUCUUUGUAUAUUAUUCCUCUCUU (ssRNA) [Ie_S1_P4E.1_K4.1_C4.1_H4.1_A4.1_F4.1_[+9TTCC]_T4.1] | 0.476
UCUCUUUUUCGUAUUAUUAUCUCUU (ssRNA) [Ie_S1_P5E.1_K5.1_C5.1_H5.1_[+1TTC]_A5.1_F5.1_T5.1] | 1620
UCUCUUUGUAUAUUACUCUUCUCUU (ssRNA) [Ie_S1_P4E.1_K4.1_C4.1_H4.1_A4.1_F4.1_[+9CTCT]_T4.1] | 0.906
UCUCUUUGUAUAUUACUCUCUCUU (ssRNA) [Ie_S1_P4E.1_K4.1_C4.1_H4.1_A4.1_F4.1_[+9CTC]_T4.1] | 1.09
UCUCUUUCGUAUUAUUAUCUCUU (ssRNA) [Ie_S1_P5E.1_K5.1_C5.1_H5.1_[+1C]_A5.1_F5.1_T5.1] | 1320
UCUCUUUGUAUAUUUUCCUAUCUCUU (ssRNA) [Ie_S1_P4E.1_K4.1_C4.1_H4.1_A4.1_F4.1_[+8TTCCT]_T4.1] | 5.96
UCUCUUUCUGUAUUAUUAUCUCUU (ssRNA) [Ie_S1_P5E.1_K5.1_C5.1_H5.1_[+1CT]_A5.1_F5.1_T5.1] | 3.96
UCUCUUUCUCUGUAUUAUUAUCUCUU (ssRNA) [Ie_S1_P5E.1_K5.1_C5.1_H5.1_[+1CTCT]_A5.1_F5.1_T5.1] | 7.73
UCUCUUUUCUGUAUUAUUAUCUCUU (ssRNA) [Ie_S1_P5E.1_K5.1_C5.1_H5.1_[+1TCT]_A5.1_F5.1_T5.1] | 4.9
UCUCUUUGUAUAUUAUCUCUCUU (ssRNA) [Ie_S1_P4E.1_K4.1_C4.1_H4.1_A4.1_F4.1_[+9TC]_T4.1] | 0.435
UCUCUUUGUAUAUUCUCUCAUCUCUU (ssRNA) [Ie_S1_P4E.1_K4.1_C4.1_H4.1_A4.1_F4.1_[+8CTCTC]_T4.1] | 5.64
UCUCUUUUCUCUGUAUUAUUAUCUCUU (ssRNA) [Ie_S1_P5E.1_K5.1_C5.1_H5.1_[+1TCTCT]_A5.1_F5.1_T5.1] | 7.43
UCUCUUUGUAUAUUAUUUCUCUU (ssRNA) [Ie_S1_P4E.1_K4.1_C4.1_H4.1_A4.1_F4.1_[+9TT]_T4.1] | 0.545
UCUCUUUGUAUAUUAUUCUCUU (ssRNA) [Ie_S1_P4E.1_K4.1_C4.1_H4.1_A4.1_F4.1_[+9T]_T4.1] | 0.531
UCUCUUUUUUGUAUUAUUAUCUCUU (ssRNA) [Ie_S1_P5E.1_K5.1_C5.1_H5.1_[+1TTT]_A5.1_F5.1_T5.1] | 6.28
UCUCUUUCUCUCGUAUUAUUAUCUCUU (ssRNA) [Ie_S1_P5E.1_K5.1_C5.1_H5.1_[+1CTCTC]_A5.1_F5.1_T5.1] | 1240
UCUCUUUUUGUAUUAUUAUCUCUU (ssRNA) [Ie_S1_P5E.1_K5.1_C5.1_H5.1_[+1TT]_A5.1_F5.1_T5.1] | 7.17
UCUCUUUGUAUAUUACCCUUUCUCUU (ssRNA) [Ie_S1_P4E.1_K4.1_C4.1_H4.1_A4.1_F4.1_[+9CCCTT]_T4.1] | 0.925
UCUCUUUGUAUAUUCUCAUCUCUU (ssRNA) [Ie_S1_P4E.1_K4.1_C4.1_H4.1_A4.1_F4.1_[+8CTC]_T4.1] | 10.8

Binder | Kd [nM]
UCUCUUUGUAUAUUACCUCUCUU (ssRNA) [Ie_S1_P4E.1_K4.1_C4.1_H4.1_A4.1_F4.1_[+9CC]_T4.1] | 0.729
Ib_S2_P3E.1_K3.1_C3.1_H3.1_[T1C]_A3.1_F3.1_[T7A]_T3.1 (ssRNA) RNA: UUUGAUUAAUAUGAUAUCGUUCUUUCUCGUAUAAAUUCUUUCUCGAUAUCAUAUUAAUCUUU | > 2300
Ib_S2_P3E.1_K3.1_C3.1_H3.1_[T1G]_A3.1_F3.1_[A8G]_T3.1 (ssRNA) RNA: UUUGAUUAAUAUGAUAUCGUUCUUUCUGGUAUAUGUUCUUUCUCGAUAUCAUAUUAAUCUUU | 1140
Ib_S2_P3E.1_K3.1_C3.1_H3.1_[G2C]_A3.1_F3.1_[T7A]_T3.1 (ssRNA) RNA: UUUGAUUAAUAUGAUAUCGUUCUUUCUUCUAUAAAUUCUUUCUCGAUAUCAUAUUAAUCUUU | > 2300
Ib_S2_P3E.1_K3.1_C3.1_H3.1_[A4G]_A3.1_F3.1_[T7A]_T3.1 (ssRNA) RNA: UUUGAUUAAUAUGAUAUCGUUCUUUCUUGUGUAAAUUCUUUCUCGAUAUCAUAUUAAUCUUU | 35.3
Ib_S2_P3E.1_K3.1_C3.1_H3.1_[A4T]_A3.1_F3.1_[T7A]_T3.1 (ssRNA) RNA: UUUGAUUAAUAUGAUAUCGUUCUUUCUUGUUUAAAUUCUUUCUCGAUAUCAUAUUAAUCUUU | 1590
UCUCUUUGUAUAUUACUUCUCUU (ssRNA) [Ie_S1_P4E.1_K4.1_C4.1_H4.1_A4.1_F4.1_[+9CT]_T4.1] | 0.578
UCUCUUUGUAUAUUACUCUCUCUCUU (ssRNA) [Ie_S1_P4E.1_K4.1_C4.1_H4.1_A4.1_F4.1_[+9CTCTC]_T4.1] | 0.699
UCUCUUUGUAUAUUACCCUCUCUU (ssRNA) [Ie_S1_P4E.1_K4.1_C4.1_H4.1_A4.1_F4.1_[+9CCC]_T4.1] | 1.11
UCUCUUUCCUGUAUUAUUAUCUCUU (ssRNA) [Ie_S1_P5E.1_K5.1_C5.1_H5.1_[+1CCT]_A5.1_F5.1_T5.1] | 7.97
UCUCUUUCUCGUAUUAUUAUCUCUU (ssRNA) [Ie_S1_P5E.1_K5.1_C5.1_H5.1_[+1CTC]_A5.1_F5.1_T5.1] | 1250
UCUCUUUGUAUAUUCCUCUAUCUCUU (ssRNA) [Ie_S1_P4E.1_K4.1_C4.1_H4.1_A4.1_F4.1_[+8CCTCT]_T4.1] | 6.71
UCUCUUUGUAUAUUAUCUCUCUCUU (ssRNA) [Ie_S1_P4E.1_K4.1_C4.1_H4.1_A4.1_F4.1_[+9TCTC]_T4.1] | 0.601
UCUCUUUCCCUUGUAUUAUUAUCUCUU (ssRNA) [Ie_S1_P5E.1_K5.1_C5.1_H5.1_[+1CCCTT]_A5.1_F5.1_T5.1] | 5.34
UCUCUUUGUAUAUUAUCUUCUCUU (ssRNA) [Ie_S1_P4E.1_K4.1_C4.1_H4.1_A4.1_F4.1_[+9TCT]_T4.1] | 0.632
UCUCUUUCCCUGUAUUAUUAUCUCUU (ssRNA) [Ie_S1_P5E.1_K5.1_C5.1_H5.1_[+1CCCT]_A5.1_F5.1_T5.1] | 5.88
UCUCUUUGUAUAUUACCUUCUCUU (ssRNA) [Ie_S1_P4E.1_K4.1_C4.1_H4.1_A4.1_F4.1_[+9CCT]_T4.1] | 0.795
UCUCUUUCCUCUGUAUUAUUAUCUCUU (ssRNA) [Ie_S1_P5E.1_K5.1_C5.1_H5.1_[+1CCTCT]_A5.1_F5.1_T5.1] | 4.35
